# Source: patent US20170204140A1, “ANTAGONISTIC PEPTIDES” (Deakin University, priority 2014, published 2017)
# Ends that are not written are not given here.
# Key:
# CHO-APP cells = assay: Aβ secretion from CHO-APP cells, sandwich ELISA; type: cell-based, Chinese hamster; settings: 5 hrs treatment; 1 nM to 1 μM
# Protocol: Cells were treated for 5 hrs with compound concentrations ranging from 1 nM to 1 μM. Aβ secreted in the cell media was quantified using a sandwich ELISA. Data are calculated relative to Aβ secreted from control cells treated with DMSO (vehicle) alone.
# Cells are seeded in 12-well plates and treated for 6-24 hrs with peptide or vehicle. After treatment, the cells are examined under a light microscope to evaluate toxicity. Culture media is collected, centrifuged and stored at −20° C. for Aβ ELISA and for sAPPβ analysis. Cells are harvested in PBS and cell pellets collected by centrifugation and frozen at −80° C. until use. Pellets are homogenized in RIPA buffer (0.1% SDS, 0.5% sodium deoxycholate, 1% Triton X-100, 150 mM NaCl in 50 mM Tris-HCl, pH 7.4) to assay for BACE1 enzymatic activity. The data is normalised to protein concentration determined by the BCA.
# 0.5 μg of mouse monoclonal antibody WO2 (Aβ1-16) is coated in 384-well plates. After blocking with hydrolysed casein and washing with PBS containing 0.05% Tween 20 (PBS-T), biotinylated IE8 antibody (Aβ18-22) (20 ng dilution in 10 μL blocking buffer) is added followed by culture media samples (50 μL/well). A standard curve of Aβ peptide (0.03-3 ng/well) is run in parallel. […] The plates are read in a Wallac Victor 2 Multicounter instrument and data calculated relative to the Aβ peptide standard curve.
# IL-4 binding to IL-4Rα = target: T1, IL-4 binding to IL-4Rα (Homo sapiens, UniProt P24394); assay: Inhibition ELISA of IL-4 binding to IL-4Rα; settings: pre-incubation of IL-4Rα with nM amounts of the peptide
# T1 construct: purchased SBH Sciences (IL-4Rα); Sigma-Aldrich (IL-4)
# T1 sequence (P24394 26-232 limits assumed): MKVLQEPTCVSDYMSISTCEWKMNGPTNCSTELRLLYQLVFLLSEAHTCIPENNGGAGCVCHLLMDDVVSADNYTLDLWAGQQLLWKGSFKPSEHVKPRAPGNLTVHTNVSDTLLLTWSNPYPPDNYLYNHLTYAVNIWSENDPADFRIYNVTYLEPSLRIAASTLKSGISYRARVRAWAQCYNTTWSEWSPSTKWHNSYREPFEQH
# Description: (§1) After extensive washing, HRP will be colorimetrically detected with the substrate o-phenylenediamine (Sigma-Aldrich) and read at 492 nm, according to our established protocols.
# IL-13 binding to IL-4Rα = target: T2, IL-13 binding to IL-4Rα (Homo sapiens, UniProt P24394); assay: Inhibition ELISA of IL-13 binding to IL-4Rα; settings: pre-incubation of IL-4Rα with nM amounts of the peptide
# T2 construct: purchased SBH Sciences (IL-4Rα); Sigma-Aldrich (IL-13)
# T2 sequence (P24394 26-232 limits assumed): T1 sequence (P24394 26-232 limits assumed)
# Description: as §1
# [1] = system: JAK-STAT6 signaling in HEK-Blue cells; assay: JAK-STAT6 signaling in HEK-Blue cells (SEAP reporter, QUANTI-Blue); type: cell-based
# Protocol: Positive Control (PC) included cells treated with IL-4 cytokine alone. Control 1 (C1) included cells incubated with peptide antagonist only and Control 2 (C2) included cells without any treatment. The results represent the mean of 3 replicates within an experiment and the error bars show standard deviation. P<0.05* denotes significance of optical density (OD) readings compared to positive control (PC).
# The percentage values represented here are a reflection of treatments used in FIG. 9 (75 μM, 150 μM and 225 μM). […] Positive control is denoted at 0%, which is used as a referral point for the standard value at which inhibition begins.
# Activation of this pathway leads to SEAP secretion in the supernatant and is easily detected using QUANTI-Blue medium that changes colour to purple/blue in the presence of SEAP, following manufacturer's instructions. Cells are grown and maintained in DMEM medium with 10% FCS at 37° C. in a 5% CO2-humidified chamber, following the manufacturer's instructions and established cell culture techniques. […]
# In FIG. 9, six treatment wells were used in total; 4 wells treated with peptide N1 and 2 wells without peptide as positive and negative controls (shown in results section). […] The subsequent results were read using an xMark microplate absorbance spectrophotometer (Bio-Rad) at a wavelength of 640 nm
# endogenous BACE1 = target: T3, endogenous BACE1 (Homo sapiens, UniProt P56817); assay: BACE1 enzyme activity assay on M17 human neuroblastoma cell lysate; type: biochemical; settings: 200 nM peptide
# T3 construct: endogenous in cells; host or cells: M17 human neuroblastoma cells (lysate)
# T3 sequence (P56817 46-501): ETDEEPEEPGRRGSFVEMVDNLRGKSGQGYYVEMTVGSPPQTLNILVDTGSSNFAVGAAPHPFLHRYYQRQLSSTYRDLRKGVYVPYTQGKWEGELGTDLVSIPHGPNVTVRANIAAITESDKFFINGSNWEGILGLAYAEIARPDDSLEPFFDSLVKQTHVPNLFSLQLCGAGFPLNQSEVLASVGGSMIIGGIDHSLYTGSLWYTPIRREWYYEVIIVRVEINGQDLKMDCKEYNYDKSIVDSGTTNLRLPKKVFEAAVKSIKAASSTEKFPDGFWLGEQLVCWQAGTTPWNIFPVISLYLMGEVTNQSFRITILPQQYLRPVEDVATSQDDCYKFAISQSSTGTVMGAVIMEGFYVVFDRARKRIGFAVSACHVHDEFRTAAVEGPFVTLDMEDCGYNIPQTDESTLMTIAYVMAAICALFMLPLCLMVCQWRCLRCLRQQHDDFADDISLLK
# Protocol: (§2) The M17 cell lysate was subjected to BACE1 enzyme activity assay and was read on a fluorometer in duplicate with one experimental group of a positive control, without the peptide inhibitor (0 nM), and an experimental group, with an added 200 nM concentration of the peptide inhibitor. […] The mean fluorescent units are a representation of the cleaved product of APP by BACE1 (P<0.0 5). This indicates the production of BACE1 in cultured human neuronal cells and the usefulness of this cell line.
# as §2, with “5).” for “5). This indicates the production of BACE1 in cultured human neuronal cells and the usefulness of this cell line.”
# The CelLytic extraction kit (Sigma-Aldrich) is used to prepare total protein extracts from M17 cells, with protein concentrations determined by BCA protein assay (Thermo Scientific Pierce, NH, USA), following the manufacturer's instructions.
# Cell lysates obtained above are subjected to BACE1 enzyme assays, as described above.
# BACE1 = BACE1 (Homo sapiens, UniProt P56817); assay: BACE1 inhibition assay based on cleavage of fluorogenic APP substrate; type: biochemical; settings: peptide 100 nM and 200 nM; versus 0 nM control
# BACE1, sequence (P56817 46-501, species assumed): as the sequence (P56817 46-501) above
# Protocol: The peptide concentrations of 100 nM and 200 nM show a significant (*) difference to the upper limit when compared with the negative control. The mean fluorescent units are a representation of the cleaved product of APP by BACE1 (P<0.0 5).
# A fluorescent BACE1 activity assay kit (Sigma-Aldrich, NSW, Australia), is used to not only show the cleavage of APP by BACE1, but also the inhibitors' ability to prevent cleavage of APP by BACE1. A measurement of fluorescence expresses the resulting cleaved APP product, which indirectly measures the activity of BACE1 in cleaving APP. Assays are conducted in triplicate with (1, 10, 100 and 1000 nM) or without the peptide inhibitors, as negative controls. Commercially available BACE1 inhibitors (STA-200 and Merck Compound IV) are used as references. Data derived from assays at various substrate concentrations are used to determine Ki values and the mode of inhibition (competitive/allosteric) using the Lineweaver-Burk method.
reduction of IL-4 binding to IL-4Rα (IL-4 binding to IL-4Rα) [%],reduction of IL-13 binding to IL-4Rα (IL-13 binding to IL-4Rα) [%],inhibition of endogenous BACE1 activity (endogenous BACE1),inhibition of BACE1 activity (BACE1),Compound,Aβ secreted in the cell media relative to DMSO control (CHO-APP cells),"inhibition of JAK-STAT6 signaling ([1]; 225 μM peptide, IL-4 stimulated HEK-Blue cells, dose-dependent (75, 150, 225 μM))",JAK-STAT6 signaling triggered by peptide alone ([1]; peptide without IL-4)
,,,,C[C@@H](NC(=O)c1cc(C(=O)N[C@@H](Cc2ccccc2)[C@H](O)CNC2CC2)cc(N(C)S(C)(=O)=O)c1)c1ccccc1 [Compound IV],inhibits Aβ secretion in a dose dependent manner,,
25,50,more than 50%,more than 40%,FHESWPTFLSPS [peptide antagonist],,up to 59%,did not trigger a non-specific JAK-STAT6 signaling
